Laboratory results: patent US20220106400A1 (Bristol-Myers Squibb, published 2022)
Several values for one entry are separate records, joined by “and”; a condition that tells them apart may be missing. Equal values may be shown once. Read-outs that look alike come from different tables or passages of the source.

Assays:
[1] = target: T1, human CD73 on human tumor cell lines (human, UniProt P21589 27-549); assay: cell-based or functional assay
T1 sequence (looked up): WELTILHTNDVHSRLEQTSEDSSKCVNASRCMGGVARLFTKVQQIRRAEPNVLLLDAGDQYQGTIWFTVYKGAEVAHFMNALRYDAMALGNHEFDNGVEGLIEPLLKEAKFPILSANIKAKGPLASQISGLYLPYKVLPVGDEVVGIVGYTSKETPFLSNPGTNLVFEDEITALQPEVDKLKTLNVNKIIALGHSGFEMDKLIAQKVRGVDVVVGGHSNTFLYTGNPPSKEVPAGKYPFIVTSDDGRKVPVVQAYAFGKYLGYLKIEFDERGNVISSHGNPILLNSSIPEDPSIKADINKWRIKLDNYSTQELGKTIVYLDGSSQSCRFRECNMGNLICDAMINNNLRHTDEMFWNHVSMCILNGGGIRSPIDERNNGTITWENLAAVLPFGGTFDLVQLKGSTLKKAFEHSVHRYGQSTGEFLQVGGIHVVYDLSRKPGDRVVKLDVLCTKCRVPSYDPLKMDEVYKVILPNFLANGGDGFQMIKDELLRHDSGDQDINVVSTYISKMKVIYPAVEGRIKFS

[2] = target: T1, human CD73 on human tumor cell lines; assay: cell-based or functional assay; remark: listed apart in the source
[3] = target: T2, N-terminal domain of hCD73 (residues 26-336 of human CD73), his-tagged (human, UniProt P21589 26-336); assay: SPR Biacore T100, mAb captured on protein A, N-hCD73-his analyte, 25 C
T2 construct: also called N-hCD73; N-hCD73-his
T2 sequence (looked up): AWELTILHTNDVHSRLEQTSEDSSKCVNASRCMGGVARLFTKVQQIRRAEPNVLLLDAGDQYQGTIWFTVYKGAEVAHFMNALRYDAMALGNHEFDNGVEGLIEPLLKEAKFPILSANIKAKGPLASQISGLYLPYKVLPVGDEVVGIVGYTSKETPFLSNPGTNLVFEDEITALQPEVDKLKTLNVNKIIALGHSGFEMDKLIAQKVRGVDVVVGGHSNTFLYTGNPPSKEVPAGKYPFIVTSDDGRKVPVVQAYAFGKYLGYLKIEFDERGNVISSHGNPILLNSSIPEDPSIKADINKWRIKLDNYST
Experimental: (§1) The affinity of the antibodies for human CD73 was measured to determine whether the change of the constant region affects them. The affinities were determined by Surface Plasmon Resonance (SPR) as follows. […] For these experiments, protein A (Pierce) was immobilized to a density of 3000-4000 RU on flow cells 1-4 of a CM5 sensor chip (GE Healthcare) using standard ethyl(dimethylaminopropyl) carbodiimide (EDC)/N-hydroxysuccinimide (NHS) chemistry, with ethanolamine blocking, in a running buffer of 0.01 M HEPES pH 7.4, 0.15 M NaCl, 3 mM EDTA, 0.005% v/v tween 20. Kinetic experiments were performed by first capturing antibodies (5-10 ug/ml) on the protein A surfaces using a 30 s contact time at 10 ul/min, with binding of 600, 200, 66.7, 22.2, 7.4, and 2.5 nM N-hCD73-his, using a 180 s association time and 360 s dissociation time at a flow rate of 30 ul/min. The running buffer for the kinetic experiments was 10 mM sodium phosphate, 130 mM sodium chloride, 0.05% tween 20, pH 7.1. The surfaces were regenerated after each cycle using two 30 s pulses of 10 mM glycine pH 1.5 at a flow rate of 30 μl/min. Sensogram data was double-referenced and then fitted to a 1:1 Langmuir model using Biacore T100 evaluation software v2.0.4, to determine the association rate constant (ka), the dissociation rate constant (kd), and the equilibrium dissociation constant (KD).

[4] = target: T2, N-terminal domain of hCD73 (residues …); assay: SPR Biacore T100, mAb captured on protein A, N-hCD73-his analyte, 25 C; separate experiment
Experimental: as §1

[5] = target: T1, human CD73 on human tumor cell lines; assay: cell-based or functional assay; remark: listed apart in the source
[6] = target: T1, human CD73 on human tumor cell lines; assay: cell-based or functional assay; remark: listed apart in the source
[7] = target: T3, full length extracellular domain of human-CD73 with C-terminal polyhistidine tag (residues 26-546) (human, UniProt P21589 26-546); assay: SEC, 1:1 molar mix 5.5 uM each
T3 construct: range 26-546; also called hCD73-his; CD73-his
T3 sequence (looked up): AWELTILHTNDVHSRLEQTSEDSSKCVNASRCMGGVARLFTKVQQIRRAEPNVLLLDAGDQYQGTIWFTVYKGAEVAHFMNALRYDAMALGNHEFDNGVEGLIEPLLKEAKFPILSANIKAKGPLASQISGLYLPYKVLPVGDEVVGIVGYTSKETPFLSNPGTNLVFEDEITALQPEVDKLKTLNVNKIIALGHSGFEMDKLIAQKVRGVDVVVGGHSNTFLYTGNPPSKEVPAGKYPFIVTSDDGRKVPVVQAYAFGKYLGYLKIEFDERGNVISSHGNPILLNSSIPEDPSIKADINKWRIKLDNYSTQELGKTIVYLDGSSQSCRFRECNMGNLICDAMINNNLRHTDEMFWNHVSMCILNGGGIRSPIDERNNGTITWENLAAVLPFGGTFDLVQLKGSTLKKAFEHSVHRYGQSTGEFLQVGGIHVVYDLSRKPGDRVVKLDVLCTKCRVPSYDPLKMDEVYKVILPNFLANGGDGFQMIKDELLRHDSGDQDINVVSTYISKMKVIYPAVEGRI
Experimental: The oligomeric state of CD73/antibody complexes were examined by size-exclusion chromatography coupled to an in-line multi-angle light scattering detector (SEC-MALS). Isocratic separations were performed on a Shodex PROTEIN KW-803 column connected to an Prominence Shimadzu UFLC in buffer containing 200 mM K₂HPO₄, 150 mM NaCl, pH 6.8, containing 0.02% Na azide (0.1 μm filtered) running at 0.5 mL/min. Samples were injected onto the column using a SIL-20AC Prominence Shimadzu autosampler, and data were obtained from three online detectors connected in series: a Prominence SPD-20AD diode array UV/vis spectrophotometer followed by a Wyatt miniDAWN™ TREOS Multi-Angle Light Scattering Detector then a Wyatt Optilab T-rEX Refractive Index Detector. Data were collected and analyzed using Astra (Wyatt) and Labsolutions (Shimadzu) software.
CD73.4 antibodies having the heavy chain constant regions set forth in Table 14 were also tested for formation of high molecular weight complexes by SEC-MALS and DLS experiments, as described in Example 3.

Binder	EC50 of CD73 internalization, Calu6, 2 h [1]	Ymax of CD73 internalization, Calu6, 2 h [1]	% internalization, Calu6 [2]	% internalization, H2030 [2]	% internalization, H2228 [2]	% internalization, HCC15 [2]	T1/2 internalization, Calu6 [2]	T1/2 internalization, H2030 [2]	T1/2 internalization, H2228 [2]	T1/2 internalization, HCC15 [2]	Kd [3]	koff [3]	kon [3]	Kd [4]	koff [4]	kon [4]	further results
CD73.10-IgG2-C219S (antibody, anti-CD73; also called CD73.10-IgG2CS; CD73.10-Vh-hHC-IgG2-C219S) heavy: QVQLVESGGGVVQPGRSLRLSCAASGFTFSNYGMHWVRQAPGKGLEWVAVIWYDESNKYYPDSVKGRFTISRDNSKNTLYLQMNSLRAEDTAVYYCARGGSSWYPDSFDIWGQGTMVTVSSASTKGPSVFPLAPCSRSTSESTAALGCLVKDYFPEPVTVSWNSGALTSGVHTFPAVLQSSGLYSLSSVVTVPSSNFGTQTYTCNVDHKPSNTKVDKTVERKSCVECPPCPAPPVAGPSVFLFPPKPKDTLMISRTPEVTCVVVDVSHEDPEVQFNWYVDGVEVHNAKTKPREEQFNSTFRVVSVLTVVHQDWLNGKEYKCKVSNKGLPAPIEKTISKTKGQPREPQVYTLPPSREEMTKNQVSLTCLVKGFYPSDIAVEWESNGQPENNYKTTPPMLDSDGSFFLYSKLTVDKSRWQQGNVFSCSVMHEALHNHYTQKSLSLSPG light: not shown	0.67 nM	99 % of 100 nM 11F11	91%	85%	93%	91%	3 min	3.3 min	9.7 min	2.6 min	6.2 nM	0.0014 s⁻¹	220000 M⁻¹ s⁻¹	8.3 nM	0.0018 s⁻¹	220000 M⁻¹ s⁻¹	
CD73.10-IgG2-C219S-IgG1.1 (antibody, anti-CD73; also called CD73.10-IgG2CS-IgG1.1f; CD73.10-Vh-hHC-IgG2-C219S-IgG1.1f) heavy: QVQLVESGGGVVQPGRSLRLSCAASGFTFSNYGMHWVRQAPGKGLEWVAVIWYDESNKYYPDSVKGRFTISRDNSKNTLYLQMNSLRAEDTAVYYCARGGSSWYPDSFDIWGQGTMVTVSSASTKGPSVFPLAPCSRSTSESTAALGCLVKDYFPEPVTVSWNSGALTSGVHTFPAVLQSSGLYSLSSVVTVPSSNFGTQTYTCNVDHKPSNTKVDKTVERKSCVECPPCPAPPVAGPSVFLFPPKPKDTLMISRTPEVTCVVVDVSHEDPEVKFNWYVDGVEVHNAKTKPREEQYNSTYRVVSVLTVLHQDWLNGKEYKCKVSNKALPSSIEKTISKAKGQPREPQVYTLPPSREEMTKNQVSLTCLVKGFYPSDIAVEWESNGQPENNYKTTPPMLDSDGSFFLYSKLTVDKSRWQQGNVFSCSVMHEALHNHYTQKSLSLSPG light: not shown	0.87 nM	99 % of 100 nM 11F11	91%	87%	92%	91%	3.1 min	4.3 min	9.4 min	3 min	5.7 nM	0.0014 s⁻¹	240000 M⁻¹ s⁻¹	6.8 nM	0.0016 s⁻¹	230000 M⁻¹ s⁻¹	
CD73.4-IgG2-C219S (antibody, anti-CD73; also called CD73.4-IgG2CS; CD73.4-IgG2.3) heavy: QVQLVESGGGVVQPGRSLRLSCAASGFTFSNYGMHWVRQAPGKGLEWVAVILYDGSNKYYPDSVKGRFTISRDNSKNTLYLQMNSLRAEDTAVYYCARGGSSWYPDSFDIWGQGTMVTVSSASTKGPSVFPLAPCSRSTSESTAALGCLVKDYFPEPVTVSWNSGALTSGVHTFPAVLQSSGLYSLSSVVTVPSSNFGTQTYTCNVDHKPSNTKVDKTVERKSCVECPPCPAPPVAGPSVFLFPPKPKDTLMISRTPEVTCVVVDVSHEDPEVQFNWYVDGVEVHNAKTKPREEQFNSTFRVVSVLTVVHQDWLNGKEYKCKVSNKGLPAPIEKTISKTKGQPREPQVYTLPPSREEMTKNQVSLTCLVKGFYPSDIAVEWESNGQPENNYKTTPPMLDSDGSFFLYSKLTVDKSRWQQGNVFSCSVMHEALHNHYTQKSLSLSPG light: not shown			88%	89%	94%	94%	6.5 min	3.7 min	13.8 min	3.1 min	0.55 nM						T1/2 internalization, Calu6 [5]: 36 min; T1/2 internalization, NCI-H292 [5]: 16.6 min; Ymax internalization, Calu6 [5]: 75.6%; Ymax internalization, NCI-H292 [5]: 78.4%; T1/2 internalization, Calu6 [6]: 22.4 min and 21.8 min; T1/2 internalization, NCI-H292 [6]: 17.2 min and 17.1 min; UV % Peak1 <12.9 min [7]: 37%; UV % Peak3 15.1-16.7 min [7]: 7.7%; UV % Peak4 16.7-19.3 min (free mAb) [7]: 28.6%; UV % Peak5 >19.3 min [7]: 2.9%
11F11 (antibody, human IgG2, kappa, V domains shown, hybridoma derived anti-CD73 antibody, IgG2 constant region; also called 11F11(IgG2)) VH: QVQLVESGGGVVQPGRSLRLSCATSGFTFSNYGMHWVRQAPGKGLEWVAVILYDGSNKYYPDSVKGRFTISRDNSKNTLYLQMNSLRAEDTAVYYCARGGSSWYPDSFDIWGQGTMVTVSS VL: DIQMTQSPSSLSASVGDRVTITCRASQGISSWLAWYQQKPEKAPKSLIYAASSLQSGVPSRFSGSGSGTDFTLTISSLQPEDFATYYCQQYNSYPLTFGGGTKVEIKR	0.58 nM	98 % of 100 nM 11F11									1.6 nM	0.00042 s⁻¹	260000 M⁻¹ s⁻¹	0.56 nM	0.00016 s⁻¹	290000 M⁻¹ s⁻¹	
